Assay results taken from patent US20070105796A1 (published 2007).

Target: T1, TERT (telomerase reverse transcriptase), catalytic subunit of telomerase (human, UniProt O14746 1-1132)
T1 construct: also called human TERT
Assay: co-expression in HEK293T cells, immunoprecipitation with anti-HA antibody, Western blotting with anti-TERT antibody (FIG. 3)
Description: After culturing 4×10⁵ HEK293T cells at 37° C. overnight under the atomosphere of 5% CO₂ (in a dish with 60 mm diameter), 2 μg of the expression plasmid of HA-tagged MAPKAPK3 or pcDNA3.1 (+) as a negative control was transfected together with 2 μg of TERT expression plasmid using FuGENE6 Transfection Reagent (Roche). After 2 days of culturing, cells were washed with ice-cold phosphate buffered physiologically saline (PBS (−)), collected and suspended in 500 μl of cell lysis buffer (20 mM Tris-HCl, pH7.4/150 mM NaCl/1 mM ethylenediaminetetraacetic acid (EDTA)/2.5 mM sodium pyrophsphate)/1 mM β-glycerophsphate/1 mM Na₃VO₄/protease inhibitor cocktail), and left to stand on ice for 10 minutes. Subsequently, centrifugation was conducted at 4° C. for 10 minutes at 14,000 rpm to collect the supernatant for use as a cell lysate. Then, 10 μl of agarose-conjugated normal rabbit IgG (Sigma) was added to 500 μl of the cell lysate and subjected to overturned mixing at 4° C. for 30 minutes, followed by subjecting to centrifugation to collect the supernatant. 10 μl of agarose-conjugated anti-HA antibody (Y11, SantaCruz) was added to the collected supernatant, and subjected to overturned mixing at 4° C. overnight, followed by subjecting to centrifugation to collect the agarose beads. […] Subsequently, the binding protein was detected by Western blotting using an anti-TERT antibody (L-20, SantaCruz). […]

T1 sequence (O14746 whole entry): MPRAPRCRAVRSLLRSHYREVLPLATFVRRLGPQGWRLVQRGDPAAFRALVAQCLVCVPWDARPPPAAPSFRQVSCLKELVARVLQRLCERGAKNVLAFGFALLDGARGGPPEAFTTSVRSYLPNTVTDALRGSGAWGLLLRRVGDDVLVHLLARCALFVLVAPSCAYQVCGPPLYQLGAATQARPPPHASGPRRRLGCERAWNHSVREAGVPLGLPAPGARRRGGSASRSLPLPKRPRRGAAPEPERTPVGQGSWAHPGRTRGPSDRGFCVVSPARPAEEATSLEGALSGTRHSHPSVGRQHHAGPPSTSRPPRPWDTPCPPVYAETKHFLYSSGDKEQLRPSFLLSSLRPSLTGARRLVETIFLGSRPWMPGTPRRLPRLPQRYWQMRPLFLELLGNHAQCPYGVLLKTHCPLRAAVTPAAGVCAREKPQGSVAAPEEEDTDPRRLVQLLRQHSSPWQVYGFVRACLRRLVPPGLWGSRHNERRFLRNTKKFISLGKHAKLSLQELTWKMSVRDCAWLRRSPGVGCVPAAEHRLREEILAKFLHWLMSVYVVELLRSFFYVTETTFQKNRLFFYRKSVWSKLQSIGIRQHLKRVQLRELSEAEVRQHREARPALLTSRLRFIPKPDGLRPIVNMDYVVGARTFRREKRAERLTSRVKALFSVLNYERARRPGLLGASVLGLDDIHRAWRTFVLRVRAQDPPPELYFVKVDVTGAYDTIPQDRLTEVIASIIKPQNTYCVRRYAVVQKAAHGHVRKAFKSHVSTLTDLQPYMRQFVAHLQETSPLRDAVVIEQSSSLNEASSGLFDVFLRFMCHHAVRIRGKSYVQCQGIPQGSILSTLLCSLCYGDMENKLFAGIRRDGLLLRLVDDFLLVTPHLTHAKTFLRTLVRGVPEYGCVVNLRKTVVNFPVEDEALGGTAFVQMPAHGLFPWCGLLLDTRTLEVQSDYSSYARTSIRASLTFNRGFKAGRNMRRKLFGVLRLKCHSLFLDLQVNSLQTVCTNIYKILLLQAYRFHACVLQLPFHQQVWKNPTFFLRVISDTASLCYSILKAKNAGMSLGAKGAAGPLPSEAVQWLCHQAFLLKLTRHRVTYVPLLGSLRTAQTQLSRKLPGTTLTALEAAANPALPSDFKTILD

binding result: binds
B1: N-terminal HA-tagged MAPKAPK3 (enzyme)
chain: MDGETAEEQGGPVPPPVAPGGPGLGGAPGGRREPKKYAVTDDYQLSKQVLGLGVNGKVLECFHRRTGQKCALKLLYDSPKARQEVDHHWQASGGPHIVCILDVYENMHHGKRCLLIIMECMEGGELFSRIQERGDQAFTEREAAEIMRDIGTAIQFLHSHNIAHRDVKPENLLYTSKEKDAVLKLTDFGFAKETTQNALQTPCYTPYYVAPEVLGPEKYDKSCDMWSLGVIMYILLCGFPPFYSNTGQAISPGMKRRIRLGQYGFPNPEWSEVSEDAKQLIRLLLKTDPTERLTITQFMNHPWINQSMVVPQTPLHTARVLQEDKDHWDEVKEEMTSALATMRVDYDQVKIKDLKTSNNRLLNKRRKKQAGSSSASQGCNNQ
notes: Expressed in HEK293T cells from pcDNA3.1(+); also called HA-MAPKAPK3; not shown: HA-tag at the N-terminus
